Measurements from patent publication US20030236190A1 (published 2003).
Positions of bridges follow the written chain, without caps; N, C: chain ends. No end group written: not given here.

B1: D815-6aa-RP9 (peptide)
peptide: WLDQERAWLWCEISGRGCLSGGSGGSGSLDESFYDWFERQLGKK
notes: Site 2-Site 1 dimer peptide, recombinant; also called D815-RP9 (6 aa linker); D815-6-RP9
B2: D815-12aa-RP9 (peptide)
peptide: WLDQERAWLWCEISGRGCLSGGSGGSGGSGGSGSLDESFYDWFERQLGKK
modifications: not fully specified (bridges); cysteine pairing not given here
notes: Site 2-Site 1 dimer peptide, recombinant; also called D815-RP9 (12 aa linker); D815-12-RP9
B3: D815-6aa-G33 (peptide)
peptide: WLDQERAWLWCEISGRGCLSGGSGGSGIISQSCPESFYDWFAGQVSDPWWCW
notes: Site 2-Site 1 dimer peptide, recombinant; also called D815-G33 (6 aa linker); D815-6-G33
B4: 436 (other, not shown: large carriers; small tags and cut ends)
chain: NNNNLGIEGRISEFIEGRAQPAMAFHENFYDWFVRQVSGGSGGSGGSFHENFYDWFVRQVSAAAGAPVPYPDPLEPRAA
notes: MBP fusion
B5: 437 (other, not shown: large carriers; small tags and cut ends)
chain: NNNNLGIEGRISEFIEGRAQPAMAFHENFYDWFVRQVSAAAGAPVPYPDPLEPRAA
notes: MBP fusion
B6: 435 (other, not shown: large carriers; small tags and cut ends)
chain: NNNNLGIEGRISEFIEGRAQPAMAFHENFYDWFVRQVSGGSFHENFYDWFVRQVSGGSFHENFYDWFVRQVSAAAGAPVPYPDPLEPRAA
notes: MBP fusion
B7: 463 (other, not shown: large carriers; small tags and cut ends)
chain: NNNNLGIEGRISEFIEGRAQPAMAFHENFYDWFVRQVSGGSFHENFYDWFVRQVSAAAGAPVPYPDPLEPRAA
notes: MBP fusion
B8: 464 (other, not shown: large carriers; small tags and cut ends)
chain: NNNNLGIEGRISEFIEGRDYKDDDDKFHENFYDWFVRQVSAAGAPVPYPDPLEPRAA
notes: MBP fusion
B9: S371 (peptide)
peptide: GSLDESFYDWFERQLGKK
notes: Synthetic RP9 monomer peptide; also called RP9; S371 (RP9)
B10: S415 (peptide)
chain: ESFYDWFERQLGK
modifications: not fully specified (residue 13, C-terminus); also: dimer, two chains joined C-terminus to C-terminus through linker 23
B11: 537 (peptide)
peptide: MADYKDDDDKGSLDESFYDWFERQLGKKGGSGGSWLDQEWAWVQCEVYGRGCPSAAAGAPVPYPDPLEPRPG
notes: recombinant dimer with tags at both ends; also called RP9-6aa-D8
B12: 538 (peptide)
peptide: MADYKDDDDKGSLDESFYDWFERQLGKKGGSGGSGGSGGSWLDQEWAWVQCEVYGRGCPSAAAGAPVPYPDPLEPRPG
notes: recombinant dimer with tags at both ends; also called RP9-12aa-D8
B13: S374 (peptide)
peptide: XGSLDESFYDWFERQLGKK
chain: XGSLDESFYDWFERQLGKK
modifications: not fully specified; the two chains are joined N-terminus to N-terminus through chemical linker 17 of Table 3 (Table 7 prints an N-terminal Ald group on each chain)
notes: Synthetic RP9 homodimer (Site 1-Site 1, N-N)
B14: 521 (peptide)
peptide: MADYKDDDDKGSLDESFYDWFERQLGKKGGSGGSGSLDESFYDWFERQLGKKAAAGAPVPYPDPLEPRPG
notes: recombinant dimer with tags at both ends (FLAG, E-Tag); also called RP9-6aa-RP9
B15: 539 (peptide)
peptide: MADYKDDDDKWLDQEWAWVQCEVYGRGCPSGGSGGSGSLDESFYDWFERQLGKKAAAGAPVPYPDPLEPRPG
notes: recombinant dimer with tags at both ends; also called D8-6aa-RP9
B16: 535 (peptide)
peptide: MADYKDDDDKGSLDESFYDWFERQLGKKGGSGGSGGSGGSGSLDESFYDWFERQLGKKAAAGAPVPYPDPLEPRPG

Biological target: human IGF-1R on FDCP-2 cells (human, UniProt P08069 31-1367)
Assay: cell-based or functional assay

| Binder | ED50 Growth [nM] | Ki/ED50 | Max Action | IC50 Antag. [nM] |
| --- | --- | --- | --- | --- |
| GIISQSCPESFYDWFAGQVSDPWWCW (Recombinant form) [recombinant peptide surrogate G33 (rG33)] | 500 | 2.9 | > 50 |  |
| WLDQERAWLWCEISGRGCLS (disulfide 11-18 (inferred), Recombinant form) [recombinant peptide surrogate D815 (rD815)] | 500 |  | > 50% |  |
| B1 | 50 | 0.8 | > 50% | > 500 |
| B2 | 10000 | 0.0003 | 100 |  |
| GSLDESFYDWFERQLG (also called RP9 minus terminal lysines) [RP9] |  | 0.5 | < 10% | 900 |
| B3 |  |  | < 10% |  |

Biological target: human IGF-1R on FDCP-2 cells (human, UniProt P08069 31-1367)
Assay: cell-based or functional assay
Remark: another data set of the same source

| Binder | IGF-1 agonist (proliferation) assay, FDCP-2 cells; ED50 [nM] |
| --- | --- |
| GIISQSCPESFYDWFAGQVSDPWWCW [G33] | ~10000 |
| WLDQERAWLWCEISGRGCLS (disulfide 11-18 (inferred)) [D815] | ~2000 |
| DYKDFYDAIDQLVRGSARAGGTRD | > 10000 |

Biological target: T1, recombinant human IGF-1R (rhIGF-1R) (human, UniProt P08069 31-935)
T1 construct: extracellular domain; Coated on plates in the TRF assay and europium-labelled (LANCE) in the TR-FRET assays; also called rhIGE-1R; Eu3+-rhIGF-1R
Assay: TR-FRET competition with b-20E2 for rhIGF-1R

| Binder | IC50 [nM] |
| --- | --- |
| GSLDESFYDWFERQLG (also called RP9 minus terminal lysines) [RP9] | 33 |
| CWARPCGDAANFYDWFVQQAS (also called C1 (D112)) [C1] | 10 |
| DYKDFYDAIDQLVRGSARAGGTRD (also called 20E2 (D118)) | 100 |
| VMDARDDPFYHKLSELVT [RP16] | 961 |

Biological target: T2, human insulin receptor (HIR) (human, UniProt P06213 28-1382, limits assumed)
Assay: Kd(HIR), insulin competition

| Binder | Kd [nM] |
| --- | --- |
| B4 | 410 |
| B5 | 8300 |
| B6 | 2000 |
| B7 | 960 |
| B8 | 39 |

Biological target: T3, Human insulin receptor (HIR), purified from transfected cells after solubilization with Triton X-100 (human, UniProt P06213 28-1382, limits assumed)
T3 construct: Detergent-solubilised receptor
Assay: competition with 125I-insulin for solubilised HIR, PEG precipitation; Kd calculated from the competition curve

| Binder | Kd [nM] |
| --- | --- |
| GSLDESFYDWFERQL (Synthetic truncated RP9 monomer peptide) [S395] | 91 |
| GSLDESFYDWFERQ (Synthetic truncated RP9 monomer peptide) [S394] | 81 |
| ESFYDWFERQL (Synthetic truncated RP9 monomer peptide) [S399] | 91 |
| ESFYDWFERQ (Synthetic truncated RP9 monomer peptide) [S400] | 630 |
| B9 | 630 |
| B10 | 100 |

Biological target: human IGF-1 receptor (HIGF-1R) (human, UniProt P08069 31-1367)
Assay: 125I-IGF-1 competition, solubilised HIGF-1R

| Binder | Kd [nM] |
| --- | --- |
| B11 | 980 |
| B12 | 710 |

Biological target: T3, Human insulin receptor (HIR), purified …
Assay: competition with 125I-insulin for solubilised HIR, PEG precipitation; Kd calculated from the competition curve
Remark: another data set of the same source

| Binder | Kd [nM] |
| --- | --- |
| B9 | 630 |
| B13 | 180 |

Biological target: T1, recombinant human IGF-1R (rhIGF-1R)
Assay: column 'nM Ki app Kd' of Table 15 (IGF-1R summary); values match the TRF competition with b-rhIGF-1 on rhIGF-1R of Table 20
Protocol: (§1) The plates were incubated for 2 hr at RT.

| Binder | Ki [nM] |
| --- | --- |
| GIISQSCPESFYDWFAGQVSDPWWCW (Recombinant form) [recombinant peptide surrogate G33 (rG33)] | 1450 |
| WLDQERAWLWCEISGRGCLS (disulfide 11-18 (inferred), Recombinant form) [recombinant peptide surrogate D815 (rD815)] | 4080 |
| B1 | 36 |
| B2 | 3 |
| GSLDESFYDWFERQLG (also called RP9 minus terminal lysines) [RP9] | 417 |
| B3 | 624 |

Biological target: T3, Human insulin receptor (HIR), purified …
Assay: competition with 125I-insulin for solubilised HIR, PEG precipitation; Kd calculated from the competition curve
Remark: another data set of the same source

| Binder | Kd [nM] |
| --- | --- |
| GSLDESFYDWFERQLG (also called RP9 minus terminal lysines) [S386] | 320 |
| GSLDESFYDWFERQL (Synthetic truncated RP9 monomer peptide) [S395] | 91 |
| GSLDESFYDWFERQ (Synthetic truncated RP9 monomer peptide) [S394] | 81 |
| ESFYDWFERQL (Synthetic truncated RP9 monomer peptide) [S399] | 91 |
| ESFYDWFERQ (Synthetic truncated RP9 monomer peptide) [S400] | 630 |

Biological target: T1, recombinant human IGF-1R (rhIGF-1R)
Assay: TR-FRET competition with b-20E2 for Eu3+-rhIGF-1R

| Binder | IC50 [nM] |
| --- | --- |
| GSLDESFYDWFERQLG (also called RP9 minus terminal lysines) [RP9] | 39.3 |
| CWARPCGDAANFYDWFVQQAS (also called C1 (D112)) [C1] | 0.88 |
| DYKDFYDAIDQLVRGSARAGGTRD (also called 20E2 (D118)) | 104 |

Biological target: T1, recombinant human IGF-1R (rhIGF-1R)
Assay: ratio of the IC50 at rhIGF-1R (TR-FRET) to the IC50 at sIR-Fc (FP); higher values indicate higher affinity for IR than IGF-1R

| Binder | Binding Ratio IGF-1R/IR |
| --- | --- |
| GSLDESFYDWFERQLG (also called RP9 minus terminal lysines) [RP9] | 1.4 |
| CWARPCGDAANFYDWFVQQAS (also called C1 (D112)) [C1] | 0.19 |
| DYKDFYDAIDQLVRGSARAGGTRD (also called 20E2 (D118)) | 1.9 |
| VMDARDDPFYHKLSELVT [RP16] | 0.15 |

Biological target: T1, recombinant human IGF-1R (rhIGF-1R)
Assay: heterogeneous TRF (DELFIA) competition with b-rhIGF-1 for plate-coated rhIGF-1R
Protocol: as §1

| Binder | IC50 [nM] |
| --- | --- |
| GIISQSCPESFYDWFAGQVSDPWWCW (Recombinant form) [recombinant peptide surrogate G33 (rG33)] | 1450 |
| WLDQERAWLWCEISGRGCLS (disulfide 11-18 (inferred), Recombinant form) [recombinant peptide surrogate D815 (rD815)] | 4080 |
| B1 | 35.7 |
| B2 | 3.22 |
| GSLDESFYDWFERQLG (also called RP9 minus terminal lysines) [RP9] | 417 |
| B3 | 624 |

Biological target: T2, human insulin receptor (HIR)
Assay: 125I-insulin competition, solubilised HIR

| Binder | Kd [nM] |
| --- | --- |
| B14 | 25 |
| B11 | 0.092 |
| B12 | 0.08 |
| B15 | 0.53 |

Biological target: insulin receptor (IR) on mouse free fat cells (mouse, UniProt P15208 28-1372)
Assay: cell-based or functional assay

insulin receptor (IR) on mouse free fat cells, sequence (P15208 28-1372): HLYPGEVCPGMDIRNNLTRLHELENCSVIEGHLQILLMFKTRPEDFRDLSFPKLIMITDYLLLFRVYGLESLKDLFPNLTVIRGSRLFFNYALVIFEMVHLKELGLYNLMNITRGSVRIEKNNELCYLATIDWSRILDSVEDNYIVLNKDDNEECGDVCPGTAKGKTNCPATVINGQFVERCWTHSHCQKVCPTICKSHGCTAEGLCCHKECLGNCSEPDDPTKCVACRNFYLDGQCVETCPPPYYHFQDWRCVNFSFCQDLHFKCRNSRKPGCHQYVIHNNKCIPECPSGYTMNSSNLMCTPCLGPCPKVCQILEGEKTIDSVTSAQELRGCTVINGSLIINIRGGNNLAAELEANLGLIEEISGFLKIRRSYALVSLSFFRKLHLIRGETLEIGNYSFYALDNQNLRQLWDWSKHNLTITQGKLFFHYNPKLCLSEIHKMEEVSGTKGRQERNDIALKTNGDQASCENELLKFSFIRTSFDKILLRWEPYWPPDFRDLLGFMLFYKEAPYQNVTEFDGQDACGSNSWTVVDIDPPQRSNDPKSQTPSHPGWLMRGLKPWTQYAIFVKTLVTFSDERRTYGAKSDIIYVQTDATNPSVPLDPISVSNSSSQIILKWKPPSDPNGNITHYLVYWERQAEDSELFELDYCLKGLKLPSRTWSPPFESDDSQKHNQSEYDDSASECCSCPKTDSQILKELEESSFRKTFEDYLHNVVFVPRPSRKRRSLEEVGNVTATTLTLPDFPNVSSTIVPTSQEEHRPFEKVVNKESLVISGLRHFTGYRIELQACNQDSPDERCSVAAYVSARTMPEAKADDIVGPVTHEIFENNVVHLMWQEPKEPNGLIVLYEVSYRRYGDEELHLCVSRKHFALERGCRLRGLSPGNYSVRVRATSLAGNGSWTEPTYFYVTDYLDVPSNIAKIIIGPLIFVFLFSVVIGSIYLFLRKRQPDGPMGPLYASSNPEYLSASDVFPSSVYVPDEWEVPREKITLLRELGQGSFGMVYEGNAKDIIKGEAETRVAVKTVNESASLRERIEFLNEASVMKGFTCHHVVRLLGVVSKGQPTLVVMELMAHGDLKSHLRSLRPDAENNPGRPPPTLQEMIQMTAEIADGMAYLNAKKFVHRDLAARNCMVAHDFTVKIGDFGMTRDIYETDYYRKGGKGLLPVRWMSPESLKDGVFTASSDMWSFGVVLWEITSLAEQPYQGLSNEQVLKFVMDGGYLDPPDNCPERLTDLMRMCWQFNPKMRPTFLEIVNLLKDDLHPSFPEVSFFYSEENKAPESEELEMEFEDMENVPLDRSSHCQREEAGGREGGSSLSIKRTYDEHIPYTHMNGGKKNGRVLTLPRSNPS

| Binder | FFC Pot. [nM] |
| --- | --- |
| B14 | 3 |
| B16 | 2 |
| B11 | 10 |
| B12 | 10 |
| B15 | 10 |

Biological target: T2, human insulin receptor (HIR)
Assay: cell-based or functional assay

| Binder | Kinase Pot. [nM] |
| --- | --- |
| B14 | 1400 |
| B16 | 1000 |
| B15 | 110 |

Biological target: T4, soluble HIR ectodomain (sIR) (human, UniProt P06213-2 28-944, limits assumed)
T4 construct: extracellular domain
Assay: FP competition vs FITC-RP9, sIR
Text: Fluorescence polarization assays (FP) were used for peptide competition studies.

| Binder | IC50 [nM] |
| --- | --- |
| EEDWLQRNANFYDWFVAELX (C-terminal Lig'; copies joined C-C by chemical linker 9, also called (EE-short-S175-Lig)2-9) [S380] | 0.5 |

Biological target: T5, soluble human insulin receptor-immunoglobulin heavy chain chimera (sIR-Fc) (human, UniProt P06213 28-956, limits assumed)
T5 construct: extracellular domain; also called sIR-Ec; not shown: immunoglobulin heavy chain constant domains
Assay: fluorescence polarization competition with FITC-RP9 for sIR-Fc

| Binder | IC50 [nM] |
| --- | --- |
| GSLDESFYDWFERQLG (also called RP9 minus terminal lysines) [RP9] | 24 |
| DYKDFYDAIDQLVRGSARAGGTRD (also called 20E2 (D118)) | 51 |
| VMDARDDPFYHKLSELVT [RP16] | 6400 |

Biological target: T6, soluble human insulin receptor-immunoglobulin heavy chain chimera (sIR-Fc) (human, UniProt P06213 28-956, limits assumed, Eu3+ label (LANCE) in the TR-FRET assays)
T6 construct: extracellular domain; construct of Bass et al., 1996; also called HIR-immunoglobulin heavy chain chimera; not shown: immunoglobulin heavy chain constant domains
Assay: TR-FRET competition vs b-S175, sIR-Fc
Protocol: The TR-FRET assays were performed in a 384-well white microplate with a final volume of 30 μl.

| Binder | IC50 [nM] |
| --- | --- |
| EEDWLQRNANFYDWFVAELX (C-terminal Lig'; copies joined C-C by chemical linker 9, also called (EE-short-S175-Lig)2-9) [S380] | 10 |
